# Measurements reported in US20240166750A1 (published 2024).
# B1: human IgG1 antibody specific for protein 4, S239D/I332E + T256D/T307Q, +Kif (antibody)
# chain: ASTKGPSVFPLAPSSKSTSGGTAALGCLVKDYFPEPVTVSWNSGALTSGVHTFPAVLQSSGLYSLSSVVTVPSSSLGTQTYICNVNHKPSNTKVDKKVEPKSCDKTHTCPPCPAPELLGGPDVFLFPPKPKDTLMISRDPEVTCVVVDVSHEDPEVKFNWYVDGVEVHNAKTKPREEQYNSTYRVVSVLQVLHQDWLNGKEYKCKVSNKALPAPEEKTISKAKGQPREPQVYTLPPSRDELTKNQVSLTCLVKGFYPSDIAVEWESNGQPENNYKTTPPVLDSDGSFFLYSKLTVDKSRWQQGNVFSCSVMHEALHNHYTQKSLSLSPGK
# B2: human IgG1 antibody specific for protein 4, S239D/S298A + T256D/T307Q, +Kif (antibody)
# chain: ASTKGPSVFPLAPSSKSTSGGTAALGCLVKDYFPEPVTVSWNSGALTSGVHTFPAVLQSSGLYSLSSVVTVPSSSLGTQTYICNVNHKPSNTKVDKKVEPKSCDKTHTCPPCPAPELLGGPDVFLFPPKPKDTLMISRDPEVTCVVVDVSHEDPEVKFNWYVDGVEVHNAKTKPREEQYNATYRVVSVLQVLHQDWLNGKEYKCKVSNKALPAPIEKTISKAKGQPREPQVYTLPPSRDELTKNQVSLTCLVKGFYPSDIAVEWESNGQPENNYKTTPPVLDSDGSFFLYSKLTVDKSRWQQGNVFSCSVMHEALHNHYTQKSLSLSPGK
# B3: human IgG1 antibody specific for protein 4, S239D + T256D/T307Q, +Kif (antibody)
# chain: ASTKGPSVFPLAPSSKSTSGGTAALGCLVKDYFPEPVTVSWNSGALTSGVHTFPAVLQSSGLYSLSSVVTVPSSSLGTQTYICNVNHKPSNTKVDKKVEPKSCDKTHTCPPCPAPELLGGPDVFLFPPKPKDTLMISRDPEVTCVVVDVSHEDPEVKFNWYVDGVEVHNAKTKPREEQYNSTYRVVSVLQVLHQDWLNGKEYKCKVSNKALPAPIEKTISKAKGQPREPQVYTLPPSRDELTKNQVSLTCLVKGFYPSDIAVEWESNGQPENNYKTTPPVLDSDGSFFLYSKLTVDKSRWQQGNVFSCSVMHEALHNHYTQKSLSLSPGK
# B4: human IgG1 antibody specific for protein 4, S239D/S298A + T256D/T307Q + R292C/V302C, +Kif (antibody)
# chain: ASTKGPSVFPLAPSSKSTSGGTAALGCLVKDYFPEPVTVSWNSGALTSGVHTFPAVLQSSGLYSLSSVVTVPSSSLGTQTYICNVNHKPSNTKVDKKVEPKSCDKTHTCPPCPAPELLGGPDVFLFPPKPKDTLMISRDPEVTCVVVDVSHEDPEVKFNWYVDGVEVHNAKTKPCEEQYNATYRCVSVLQVLHQDWLNGKEYKCKVSNKALPAPIEKTISKAKGQPREPQVYTLPPSRDELTKNQVSLTCLVKGFYPSDIAVEWESNGQPENNYKTTPPVLDSDGSFFLYSKLTVDKSRWQQGNVFSCSVMHEALHNHYTQKSLSLSPGK
# B5: human IgG1 antibody specific for protein 4, S239D/S298A + R292C/V302C, +Kif (antibody)
# chain: ASTKGPSVFPLAPSSKSTSGGTAALGCLVKDYFPEPVTVSWNSGALTSGVHTFPAVLQSSGLYSLSSVVTVPSSSLGTQTYICNVNHKPSNTKVDKKVEPKSCDKTHTCPPCPAPELLGGPDVFLFPPKPKDTLMISRTPEVTCVVVDVSHEDPEVKFNWYVDGVEVHNAKTKPCEEQYNATYRCVSVLTVLHQDWLNGKEYKCKVSNKALPAPIEKTISKAKGQPREPQVYTLPPSRDELTKNQVSLTCLVKGFYPSDIAVEWESNGQPENNYKTTPPVLDSDGSFFLYSKLTVDKSRWQQGNVFSCSVMHEALHNHYTQKSLSLSPGK
# B6: human IgG1 antibody specific for protein 4, S239D + R292C/V302C, +Kif (antibody)
# chain: ASTKGPSVFPLAPSSKSTSGGTAALGCLVKDYFPEPVTVSWNSGALTSGVHTFPAVLQSSGLYSLSSVVTVPSSSLGTQTYICNVNHKPSNTKVDKKVEPKSCDKTHTCPPCPAPELLGGPDVFLFPPKPKDTLMISRTPEVTCVVVDVSHEDPEVKFNWYVDGVEVHNAKTKPCEEQYNSTYRCVSVLTVLHQDWLNGKEYKCKVSNKALPAPIEKTISKAKGQPREPQVYTLPPSRDELTKNQVSLTCLVKGFYPSDIAVEWESNGQPENNYKTTPPVLDSDGSFFLYSKLTVDKSRWQQGNVFSCSVMHEALHNHYTQKSLSLSPGK
# B7: human IgG1 antibody specific for protein 4, S239D + T256D/T307Q + R292C/V302C, +Kif (antibody)
# chain: ASTKGPSVFPLAPSSKSTSGGTAALGCLVKDYFPEPVTVSWNSGALTSGVHTFPAVLQSSGLYSLSSVVTVPSSSLGTQTYICNVNHKPSNTKVDKKVEPKSCDKTHTCPPCPAPELLGGPDVFLFPPKPKDTLMISRDPEVTCVVVDVSHEDPEVKFNWYVDGVEVHNAKTKPCEEQYNSTYRCVSVLQVLHQDWLNGKEYKCKVSNKALPAPIEKTISKAKGQPREPQVYTLPPSRDELTKNQVSLTCLVKGFYPSDIAVEWESNGQPENNYKTTPPVLDSDGSFFLYSKLTVDKSRWQQGNVFSCSVMHEALHNHYTQKSLSLSPGK
# B8: human IgG1 antibody specific for protein 4, S239D/I332E + R292C/V302C, +Kif (antibody)
# chain: ASTKGPSVFPLAPSSKSTSGGTAALGCLVKDYFPEPVTVSWNSGALTSGVHTFPAVLQSSGLYSLSSVVTVPSSSLGTQTYICNVNHKPSNTKVDKKVEPKSCDKTHTCPPCPAPELLGGPDVFLFPPKPKDTLMISRTPEVTCVVVDVSHEDPEVKFNWYVDGVEVHNAKTKPCEEQYNSTYRCVSVLTVLHQDWLNGKEYKCKVSNKALPAPEEKTISKAKGQPREPQVYTLPPSRDELTKNQVSLTCLVKGFYPSDIAVEWESNGQPENNYKTTPPVLDSDGSFFLYSKLTVDKSRWQQGNVFSCSVMHEALHNHYTQKSLSLSPGK
# B9: human IgG1 antibody specific for protein 4, T256D/T307Q + R292C/V302C, +Kif (antibody)
# chain: ASTKGPSVFPLAPSSKSTSGGTAALGCLVKDYFPEPVTVSWNSGALTSGVHTFPAVLQSSGLYSLSSVVTVPSSSLGTQTYICNVNHKPSNTKVDKKVEPKSCDKTHTCPPCPAPELLGGPSVFLFPPKPKDTLMISRDPEVTCVVVDVSHEDPEVKFNWYVDGVEVHNAKTKPCEEQYNSTYRCVSVLQVLHQDWLNGKEYKCKVSNKALPAPIEKTISKAKGQPREPQVYTLPPSRDELTKNQVSLTCLVKGFYPSDIAVEWESNGQPENNYKTTPPVLDSDGSFFLYSKLTVDKSRWQQGNVFSCSVMHEALHNHYTQKSLSLSPGK
# B10: human IgG1 antibody specific for protein 4, S239D/I332E + T256D/T307Q + R292C/V302C, +Kif (antibody)
# chain: ASTKGPSVFPLAPSSKSTSGGTAALGCLVKDYFPEPVTVSWNSGALTSGVHTFPAVLQSSGLYSLSSVVTVPSSSLGTQTYICNVNHKPSNTKVDKKVEPKSCDKTHTCPPCPAPELLGGPDVFLFPPKPKDTLMISRDPEVTCVVVDVSHEDPEVKFNWYVDGVEVHNAKTKPCEEQYNSTYRCVSVLQVLHQDWLNGKEYKCKVSNKALPAPEEKTISKAKGQPREPQVYTLPPSRDELTKNQVSLTCLVKGFYPSDIAVEWESNGQPENNYKTTPPVLDSDGSFFLYSKLTVDKSRWQQGNVFSCSVMHEALHNHYTQKSLSLSPGK
# B11: human IgG1 antibody specific for protein 4, S239D/S298A + R292C/V302C, -Kif (antibody)
# chain: ASTKGPSVFPLAPSSKSTSGGTAALGCLVKDYFPEPVTVSWNSGALTSGVHTFPAVLQSSGLYSLSSVVTVPSSSLGTQTYICNVNHKPSNTKVDKKVEPKSCDKTHTCPPCPAPELLGGPDVFLFPPKPKDTLMISRTPEVTCVVVDVSHEDPEVKFNWYVDGVEVHNAKTKPCEEQYNATYRCVSVLTVLHQDWLNGKEYKCKVSNKALPAPIEKTISKAKGQPREPQVYTLPPSRDELTKNQVSLTCLVKGFYPSDIAVEWESNGQPENNYKTTPPVLDSDGSFFLYSKLTVDKSRWQQGNVFSCSVMHEALHNHYTQKSLSLSPGK
# B12: human IgG1 antibody specific for protein 4, S239D + R292C/V302C, -Kif (antibody)
# chain: ASTKGPSVFPLAPSSKSTSGGTAALGCLVKDYFPEPVTVSWNSGALTSGVHTFPAVLQSSGLYSLSSVVTVPSSSLGTQTYICNVNHKPSNTKVDKKVEPKSCDKTHTCPPCPAPELLGGPDVFLFPPKPKDTLMISRTPEVTCVVVDVSHEDPEVKFNWYVDGVEVHNAKTKPCEEQYNSTYRCVSVLTVLHQDWLNGKEYKCKVSNKALPAPIEKTISKAKGQPREPQVYTLPPSRDELTKNQVSLTCLVKGFYPSDIAVEWESNGQPENNYKTTPPVLDSDGSFFLYSKLTVDKSRWQQGNVFSCSVMHEALHNHYTQKSLSLSPGK
# B13: human IgG1 antibody specific for protein 4, S239D + T256D/T307Q, -Kif (antibody)
# chain: ASTKGPSVFPLAPSSKSTSGGTAALGCLVKDYFPEPVTVSWNSGALTSGVHTFPAVLQSSGLYSLSSVVTVPSSSLGTQTYICNVNHKPSNTKVDKKVEPKSCDKTHTCPPCPAPELLGGPDVFLFPPKPKDTLMISRDPEVTCVVVDVSHEDPEVKFNWYVDGVEVHNAKTKPREEQYNSTYRVVSVLQVLHQDWLNGKEYKCKVSNKALPAPIEKTISKAKGQPREPQVYTLPPSRDELTKNQVSLTCLVKGFYPSDIAVEWESNGQPENNYKTTPPVLDSDGSFFLYSKLTVDKSRWQQGNVFSCSVMHEALHNHYTQKSLSLSPGK
# B14: human IgG1 antibody specific for protein 4, S239D/S298A + T256D/T307Q, -Kif (antibody)
# chain: ASTKGPSVFPLAPSSKSTSGGTAALGCLVKDYFPEPVTVSWNSGALTSGVHTFPAVLQSSGLYSLSSVVTVPSSSLGTQTYICNVNHKPSNTKVDKKVEPKSCDKTHTCPPCPAPELLGGPDVFLFPPKPKDTLMISRDPEVTCVVVDVSHEDPEVKFNWYVDGVEVHNAKTKPREEQYNATYRVVSVLQVLHQDWLNGKEYKCKVSNKALPAPIEKTISKAKGQPREPQVYTLPPSRDELTKNQVSLTCLVKGFYPSDIAVEWESNGQPENNYKTTPPVLDSDGSFFLYSKLTVDKSRWQQGNVFSCSVMHEALHNHYTQKSLSLSPGK
# B15: human IgG1 antibody specific for protein 4, S239D/I332E + R292C/V302C, -Kif (antibody)
# chain: ASTKGPSVFPLAPSSKSTSGGTAALGCLVKDYFPEPVTVSWNSGALTSGVHTFPAVLQSSGLYSLSSVVTVPSSSLGTQTYICNVNHKPSNTKVDKKVEPKSCDKTHTCPPCPAPELLGGPDVFLFPPKPKDTLMISRTPEVTCVVVDVSHEDPEVKFNWYVDGVEVHNAKTKPCEEQYNSTYRCVSVLTVLHQDWLNGKEYKCKVSNKALPAPEEKTISKAKGQPREPQVYTLPPSRDELTKNQVSLTCLVKGFYPSDIAVEWESNGQPENNYKTTPPVLDSDGSFFLYSKLTVDKSRWQQGNVFSCSVMHEALHNHYTQKSLSLSPGK
# B16: human IgG1 antibody specific for protein 4, S239D/I332E + T256D/T307Q + R292C/V302C, -Kif (antibody)
# chain: ASTKGPSVFPLAPSSKSTSGGTAALGCLVKDYFPEPVTVSWNSGALTSGVHTFPAVLQSSGLYSLSSVVTVPSSSLGTQTYICNVNHKPSNTKVDKKVEPKSCDKTHTCPPCPAPELLGGPDVFLFPPKPKDTLMISRDPEVTCVVVDVSHEDPEVKFNWYVDGVEVHNAKTKPCEEQYNSTYRCVSVLQVLHQDWLNGKEYKCKVSNKALPAPEEKTISKAKGQPREPQVYTLPPSRDELTKNQVSLTCLVKGFYPSDIAVEWESNGQPENNYKTTPPVLDSDGSFFLYSKLTVDKSRWQQGNVFSCSVMHEALHNHYTQKSLSLSPGK
# Target: T1, Recombinant human FcγRIIIa-V158 (human, UniProt P08637 17-208)
# T1 sequence (P08637 17-208 F176V): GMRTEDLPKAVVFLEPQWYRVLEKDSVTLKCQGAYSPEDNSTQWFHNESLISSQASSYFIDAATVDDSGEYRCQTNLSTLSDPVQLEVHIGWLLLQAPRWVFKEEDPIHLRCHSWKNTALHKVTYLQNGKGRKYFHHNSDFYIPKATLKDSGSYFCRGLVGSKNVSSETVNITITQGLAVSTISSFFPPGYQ
# Experiment: SPR; +kif
row,Binder,Kd
1,B1,7.59 nM
2,B2,14 nM
3,B3,19.7 nM
4,B4,12.8 nM
5,B5,8.76 nM
6,B6,8.97 nM
7,B7,13.1 nM
8,B8,5.46 nM
9,B9,153 nM
10,B10,5.24 nM

# Target: T1, Recombinant human FcγRIIIa-V158
# Experiment: SPR; -kif
row,Binder,Kd
1,B11,41.8 nM
2,B12,68.6 nM
3,B13,60.4 nM
4,B14,30.7 nM
5,B15,11.1 nM
6,B16,15.1 nM
